Assay [1] addresses Pcdh15 EC1-11 PICA. The assay can be described thus: AFM force-clamp spectroscopy.
The target of the next assay is Cdh23 EC1-5. The assay can be described thus: AFM force-clamp spectroscopy.
The next assay deals with full-length Cdh23 EC1-27. Nature of the assay: AFM force-clamp spectroscopy.
In assay [2] the target is Mouse Cdh23 EC1-2 (mouse) (UniProt Q99PF4). Nature of the assay: AFM force-clamp spectroscopy.
The target in assay [3] is Pcdh15 EC1-11 PICA.

The term koff denotes the first-order rate constant of dissociation. A low value points to slow dissociation. In general, stoichiometry N refers to the number of molecules, sites or subunits per partner or assembly.

Mouse Cdh23 EC1-2 (mouse), sequence (Q99PF4 24-228): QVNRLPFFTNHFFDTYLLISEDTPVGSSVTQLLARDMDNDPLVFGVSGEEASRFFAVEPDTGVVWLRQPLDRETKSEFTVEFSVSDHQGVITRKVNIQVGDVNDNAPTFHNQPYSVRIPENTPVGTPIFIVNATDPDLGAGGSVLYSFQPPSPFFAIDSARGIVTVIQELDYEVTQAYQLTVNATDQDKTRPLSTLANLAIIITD

For the substance Cdh23 EC1-27 Fc dimer (Fc fusion), the intrinsic lifetime at no force (τ0) in the assay with Pcdh15 EC1-11 PICA [1] stood at 30 s.
On to “Mouse Pcdh15 EC1-2 (from UniProt Q99PJ1 27-259) (domain or fragment)”, for which the zero-force lifetime in the assay with Cdh23 EC1-5 worked out at 1.5 s; with full-length Cdh23 EC1-27, 10 s.
Take “Pcdh15 EC1-2 (R113G), Q99PJ1 27-259 (domain or fragment; other documents disagree on this pair)”: the koff in assay [2] turned out to be 0.3 s⁻¹.
Pcdh15 EC1-11 PICA (domain or fragment) showed a stoichiometry N with Pcdh15 EC1-11 PICA [3] of 2.
